Laboratory results published in article PMC5490261, “The structural and functional characterization of human RecQ4 reveals insights into its helicase mechanism”.
Where a chain is given by its changes, count along the chain named.

Tests used:
Conditions in all cases: protein: recombinant; tags: Trx-His6 removed by 3C protease; label: 5' Cy3
[1] = target: T1, RecQ4 427-1208 K843A/R844A/R848A (Homo sapiens, UniProt O94761 427-1208, K843A;R844A;R848A); test: fluorescence polarization; WT-like, low nM apparent Kd; 20 mM HEPES pH 8.0, 10 mM NaCl, 5% glycerol, 1 mM MgCl2, 0.5 mM TCEP, 0.5 nM Cy3-ssDNA; temperature not stated
T1 sequence: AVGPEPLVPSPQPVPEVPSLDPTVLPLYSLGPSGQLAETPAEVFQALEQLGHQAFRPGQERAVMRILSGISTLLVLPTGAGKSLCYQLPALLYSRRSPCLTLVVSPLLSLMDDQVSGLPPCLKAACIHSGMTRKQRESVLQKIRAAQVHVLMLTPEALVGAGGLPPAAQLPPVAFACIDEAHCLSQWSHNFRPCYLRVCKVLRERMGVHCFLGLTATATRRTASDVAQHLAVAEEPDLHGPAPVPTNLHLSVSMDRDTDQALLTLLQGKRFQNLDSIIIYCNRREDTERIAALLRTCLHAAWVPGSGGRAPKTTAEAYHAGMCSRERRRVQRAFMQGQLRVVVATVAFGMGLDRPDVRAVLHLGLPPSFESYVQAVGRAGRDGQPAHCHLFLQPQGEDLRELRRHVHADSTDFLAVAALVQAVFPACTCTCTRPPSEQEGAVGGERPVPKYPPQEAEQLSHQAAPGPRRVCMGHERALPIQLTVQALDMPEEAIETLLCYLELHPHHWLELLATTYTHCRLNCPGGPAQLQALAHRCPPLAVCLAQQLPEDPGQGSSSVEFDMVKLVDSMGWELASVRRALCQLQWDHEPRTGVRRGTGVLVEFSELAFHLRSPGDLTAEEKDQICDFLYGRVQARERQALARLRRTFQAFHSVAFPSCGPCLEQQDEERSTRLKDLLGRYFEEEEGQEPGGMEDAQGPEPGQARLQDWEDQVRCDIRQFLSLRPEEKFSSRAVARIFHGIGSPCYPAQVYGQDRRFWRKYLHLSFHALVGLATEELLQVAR

[2] = target: T2, RecQ4 427-1208 K1048A (Homo sapiens, UniProt O94761 427-1208, K1048A); test: as above
T2 sequence: T1 sequence with A417K, A418R, A422R, K622A

[3] = target: T3, RecQ4 427-1116 (Homo sapiens, UniProt O94761 427-1116); test: fluorescence polarization; apparent Kd; 20 mM HEPES pH 8.0, 10 mM NaCl, 5% glycerol, 1 mM MgCl2, 0.5 mM TCEP, 0.5 nM Cy3-ssDNA; temperature not stated
T3 sequence: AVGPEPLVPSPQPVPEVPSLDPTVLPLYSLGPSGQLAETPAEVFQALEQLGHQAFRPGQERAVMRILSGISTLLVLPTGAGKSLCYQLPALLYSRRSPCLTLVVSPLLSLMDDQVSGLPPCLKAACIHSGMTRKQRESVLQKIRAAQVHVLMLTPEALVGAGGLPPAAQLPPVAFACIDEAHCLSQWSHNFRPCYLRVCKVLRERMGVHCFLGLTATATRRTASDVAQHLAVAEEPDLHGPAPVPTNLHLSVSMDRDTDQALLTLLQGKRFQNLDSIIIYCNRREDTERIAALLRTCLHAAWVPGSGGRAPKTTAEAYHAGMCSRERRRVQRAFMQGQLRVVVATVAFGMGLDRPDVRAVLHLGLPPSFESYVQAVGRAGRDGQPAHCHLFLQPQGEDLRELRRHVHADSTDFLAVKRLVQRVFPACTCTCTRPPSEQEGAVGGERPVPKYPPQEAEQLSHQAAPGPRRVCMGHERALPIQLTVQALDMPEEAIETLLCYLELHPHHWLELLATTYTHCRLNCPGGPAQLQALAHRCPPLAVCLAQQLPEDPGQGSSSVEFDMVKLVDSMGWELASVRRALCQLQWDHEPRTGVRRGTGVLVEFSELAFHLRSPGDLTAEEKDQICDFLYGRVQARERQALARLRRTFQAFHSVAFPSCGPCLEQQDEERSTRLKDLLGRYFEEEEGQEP

CCATTCCACCCTCTATTTTTTTTTTTTTTT (ssDNA) [T3-Cy3]
binding result [1]: binds | binding result [2]: binds | Kd [3]: 18.1 ± 0.8 nM
